The target in this test is T1, CD36 (His-tagged recombinant human protein, Sino Biological, Life technologies, 70-80 kDa) (human, UniProt P16671 30-439).
T1 construct: CD36, class B scavenger receptor, human, recombinant; also called Human recombinant CD36
The test is described as follows: SPR; Biacore T100; CD36 immobilized by amine coupling on a C1 chip (1000 RU); S100A12 species as analyte 0.62-50.0 nM, single cycle kinetics, 30 µL/min, 25 °C; HBS-P+ with 350 µM CaCl2; two-state reaction model. As to conditions: both partners purified.

Where “and” joins values, the source holds several entries; their conditions need not be identical. Equal values may be shown once.

T1 sequence (P16671 30-439): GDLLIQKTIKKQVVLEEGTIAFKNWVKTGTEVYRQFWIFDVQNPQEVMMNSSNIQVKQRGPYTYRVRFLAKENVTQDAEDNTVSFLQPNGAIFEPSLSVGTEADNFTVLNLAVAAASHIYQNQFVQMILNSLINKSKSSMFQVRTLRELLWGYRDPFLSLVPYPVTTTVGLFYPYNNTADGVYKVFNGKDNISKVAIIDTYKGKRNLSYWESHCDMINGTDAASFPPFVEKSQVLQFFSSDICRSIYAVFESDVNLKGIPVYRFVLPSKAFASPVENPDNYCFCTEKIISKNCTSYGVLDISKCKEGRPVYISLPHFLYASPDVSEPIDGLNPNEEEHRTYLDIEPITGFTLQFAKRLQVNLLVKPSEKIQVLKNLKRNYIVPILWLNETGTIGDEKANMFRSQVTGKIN

B1: commercially available native human S100A12 protein (nS100A12) (natural protein, UniProt P80511 1-92, looked up)
chain: MTKLEEHLEGIVNIFHQYSVRKGHFDTLSKGELKQLLTKELANTIKNIKDKAVIDEIFQGLDANQDEQVDFQEFISLVAIALKAAHYHTHKE
notes: S100A12, human, untagged; Called 'native' in the methods and 'untagged recombinant' in the results; also called human, untagged recombinant nS100A12
The Kd is the free concentration of one partner at which half of the binding sites on the other are occupied at equilibrium, for simple one-to-one binding. On to B1, for which the Kd is 1.04 nM and 0.9 nM.

These data come from article PMC5241339, “Insights into binding of S100 proteins to scavenger receptors: class B scavenger receptor CD36 binds S100A12 with high affinity” (Amino Acids, 2016).
